According to patent US11066455B2, “Tmem100 peptides and variants thereof and their use in treating or preventing diseases or conditions” (The Johns Hopkins University, priority 2014, dated 2021):
* marks the point of attachment. Myristoyl = CCCCCCCCCCCCCC(=O)*

Experiments:
[1] = system: neuropathic mechanical hypersensitivity in SNL rats; type: in vivo, rat; conditions: intrathecal 10 μl; h-T100 10-100 μM, HC-030031 10-200 μM, scrambled 100 μM
Source text: An modified L5 SNL model was produced as described in previously (He et al., 2014; Shechter et al., 2013). Male Sprague-Dawley rats (200-350 g, Harlan, Indianapolis, Ind.) were anesthetized with 2% isoflurane. The left L5 spinal nerve was ligated with a 6-0 silk suture and cut distally. The muscle layer was closed with 4-0 chromic gut suture and the skin closed with metal clips. For intrathecal catheter implantation, a small slit was cut in the atlanto-occipital membrane of rats, into which a saline-filled piece of PE-10 tubing (6-7 cm) was inserted (He et al., 2014). […] Hypersensitivity to punctuate mechanical stimulation was determined with the up-down method by using a series of von Frey filaments (0.38-15.1 g) applied for 4-6 seconds to the test area on the plantar surface of the hindpaw (Chaplan et al., 1994; He et al., 2014). The PWT was determined according to the formula provided by Dixon (Dixon, 1980). […] HC-030031 was purchased from Tocris Bioscience (Bristol, UK). Both drugs were dissolved in 10% dimethylsulfoxide (DMSO), 5% Tween 80 and 85% sterile saline solution. The final working solution which was injected by intrathecal route contained <1% DMSO. The number of animals used in each study was based on experience with similar studies and power analysis calculations. Animals were randomized to the different treatment groups and blinded the experimenter to drug treatment to reduce selection and observation bias. After the experiments were completed, no data point was excluded. STATISTICA 6.0 software (StatSoft, Inc., Tulsa, Okla.) was used to conduct all statistical analyses. The Tukey honestly significant difference (HSD) post-hoc test was used to compare specific data points. Bonferroni correction was applied for multiple comparisons. Two-tailed tests were performed, and data are expressed as mean±SEM; P<0.05 was considered significant in all tests.
(§1) The sequence from the last 28 amino acids of the C-terminus of the Tmem100-3Q mutant protein was synthesized and myristoylated at its N-terminus (myr-[…]-COOH) (SEQ ID NO: 8) by Twentyfirst Century Biochemicals. […] For the calcium imaging assay, the peptides were added to the calcium imaging buffer with a final concentration of 200 nM and incubated for at least […] at room temperature. For the mice behavioral assays, the peptides (5 μL, 2 mM) were injected subcutaneously in the hindpaw at least 30 minutes before testing. For the rat behavior assays, human T100-3Q (h-T100), a palmitoylated cell permeable peptide mutated based on the C terminus of human sequence in Tmem100, was applied. The sequence is Palmitoyl-[…]-COOH (SEQ ID NO: 7).

[2] = system: capsaicin-induced nocifensive behavior in WT mice; assay: Capsaicin injection: acute nocifensive behavior; type: in vivo, mouse; conditions: capsaicin 0.6 μg, peptide 2 mM
Description: Mice were injected with 6 μL of capsaicin (0.1 μg/μL in normal saline/10% ethanol/0.5% Tween 80) in the hindpaws. The mice were placed in a plexiglass cylinder, and the total time spent licking and flinching was recorded for the first 10 minutes after injection.
as §1

TRPA1 [3] = assay: Cell-attached single-channel recording in CHO cells, MO-induced activity (NPo); type: cell-based; conditions: Vh=-60 mV; co-expressed with TRPA1 only (1:4) in CHO cells
Description: (§2) Recordings were made in cell-attached single-channel or whole-cell voltage clamp configurations at 22-24° C. from the somata of small-to-medium mouse DRG neurons (15-35 pF) or CHO cells. For whole-cell configuration, holding potential (Vh) is −60 mV. Data were acquired and analyzed using an Axopatch 200B amplifier and pCLAMP9.0 software (Molecular Devices, Sunnyvale, Calif.). Borosilicate pipettes (Sutter, Novato, Calif.) were pulled and polished to resistances of 3-5 MΩ (in whole-cell and single-channel pipette solutions). Access resistance (Rs) was compensated (40-80%) when appropriate up to the value 7-10 MΩ for whole-cell configuration. Whole-cell recording data were filtered at 0.5 kHz and sampled at 2 kHz. Single-channels currents were filtered with an 8-pole, low pass Bessel filter at 0.1 kHz and sampled at 0.5 kHz, since dwelling time (τ) of the TRPA1 and TRPV1 single-currents were >0.5 sec. Whole-cell recorded data were rejected when Rs changed >20% during recording, leak currents were >100 pA, or input resistance was <200 MΩ.
(§3) Single-channel unitary current (i) was determined from the best-fit Gaussian distribution of amplitude histograms. Single-channel activity was analyzed as NPo=I/i, where I is the mean total current in a patch and i is unitary current at this voltage. For single channel slope conductances, linear fitting was used separately for positive and negative holding potentials. The slope conductances presented in figures were determined from fitting negative hold potentials (from −60 to 0 mV). The single-channel recording data were analyzed with Clampfit 9 software. This has an “event detection analysis” function that analyzes current traces and determines the number of channels in the patch (N), how many sub-conductances are present, and what the main conductance is. In order to increase the accuracy of the Po measurement, only patches containing fewer than 3 channels were used. For patches containing both TRPA1 and TRPV1, only those with equal numbers of TRPA1 and TRPV1 were used. This was monitored in each recording by applying MO and then CAP.
(§4) Standard external solution (SES) for whole-cell patch recording contained (in mM): 140 NaCl, 5 KCl, 2 CaCl2, 1 MgCl2, 10 D-glucose and 10 HEPES, pH 7.4. Vehicle, which is 0.01% DMSO, was added to external solutions. The bath solution for single-channel recording (SES-SCh) of TRP currents consisted of (in mM): 100 K-gluconate, 4 KCl, 1 MgCl2, 1 EGTA, 10 D-glucose and 10 Hepes (pH 7.3). The standard pipette solution (SIS) for the whole-cell configurations contained (in mM): 140 KCl, 1 MgCl2, 1 CaCl2, 10 EGTA, 10 D-glucose, 10 HEPES, pH 7.3. […] The baseline activities of the cells were recorded for 1-2 min prior drug applications. […]

TRPA1 [4] = system: T1, TRPA1; assay: as above; type: cell-based; conditions: Vh=-60 mV; co-expressed with TRPA1+TRPV1 (1:1:4) in CHO cells
T1 construct: MO (10 μM)-evoked Ca2+ influx; other: TRPA1+TRPV1+Tmem100-3Q (1:1:4) CHO cells; MO (10 μM)-gated whole-cell current density; other: Vh=-60 mV; TRPA1+TRPV1+Tmem100-3Q (1:1:4) CHO cells; MO (10 μM)-induced single-channel activity (NPo); co-expressed with TRPA1+TRPV1 (1:1:4) in CHO cells
Description: as §2, §3, §4

| Molecule | ipsilateral paw withdrawal threshold (PWT) vs pre-drug [1] | acute nocifensive behaviors induced by intradermal capsaicin injection [2] | MO (10 μM)-induced single-channel activity (NPo) (TRPA1 [3]) | MO (10 μM)-induced single-channel activity (NPo) (TRPA1 [4]) |
| --- | --- | --- | --- | --- |
| myr-QRVLEQVLQNWSRRANVKQAQKFQVKCT-COOH (Myristoyl-QRVLEQVLQNWSRRANVKQAQKFQVKCT-OH; SMILES CCCCCCCCCCCCCC(=O)N[C@@H](CCC(N)=O)C(=O)N[C@@H](CCCNC(=N)N)C(=O)N[C@H](C(=O)N[C@@H](CC(C)C)C(=O)N[C@@H](CCC(=O)O)C(=O)N[C@@H](CCC(N)=O)C(=O)N[C@H](C(=O)N[C@@H](CC(C)C)C(=O)N[C@@H](CCC(N)=O)C(=O)N[C@@H](CC(N)=O)C(=O)N[C@@H](Cc1c[nH]c2ccccc12)C(=O)N[C@@H](CO)C(=O)N[C@@H](CCCNC(=N)N)C(=O)N[C@@H](CCCNC(=N)N)C(=O)N[C@@H](C)C(=O)N[C@@H](CC(N)=O)C(=O)N[C@H](C(=O)N[C@@H](CCCCN)C(=O)N[C@@H](CCC(N)=O)C(=O)N[C@@H](C)C(=O)N[C@@H](CCC(N)=O)C(=O)N[C@@H](CCCCN)C(=O)N[C@@H](Cc1ccccc1)C(=O)N[C@@H](CCC(N)=O)C(=O)N[C@H](C(=O)N[C@@H](CCCCN)C(=O)N[C@@H](CS)C(=O)N[C@H](C(=O)O)[C@@H](C)O)C(C)C)C(C)C)C(C)C)C(C)C) [scrambled] | no effect | 70 ± 11 s |  |  |
| Tmem100-3Q mutant (full-length, mouse) (protein) MTEESTKENLGAPKSPTPVTMEKNPKREVVVTTGPLVSEVQLMAATGGAELSCYRCIIPFAVVVFITGIVVTAVAYSFNSHGSIISIFGLVLLSSGLFLLASSALCWKVRQRNKKVQQQESQTALVVNQRCLFA |  |  | 1.05±0.14 | 0.16±0.06 |
| Tmem100: 134-amino acid two-transmembrane protein, regulator of TRPA1 (SEQ ID NO: 1/2), expressed in cells (protein, listed as Homo sapiens, listed as Mus musculus) chain 1: MTEEPIKEILGAPKAHMAATMEKSPKSEVVITTVPLVSEIQLMAATGGTELSCYRCIIPFAVVVFIAGIVVTAVAYSFNSHGSIISIFGLVVLSSGLFLLASSALCWKVRQRSKKAKRRESQTALVANQRSLFA chain 2: MTEESTKENLGAPKSPTPVTMEKNPKREVVVTTGPLVSEVQLMAATGGAELSCYRCIIPFAVVVFITGIVVTAVAYSFNSHGSIISIFGLVLLSSGLFLLASSALCWKVRQRNKKVKRRESQTALVVNQRCLFA |  |  | 0.64±0.18 | 1.05±0.14 |
